{"source": "patent US20250152729A1", "about": "(CANCER RESEARCH TECHNOLOGY, published 2025)", "binders": {"B1": {"name": "C0120905 human Alya IgG1 (antibody, V domains shown)", "VH": "not shown", "VL": "NFMLTQPHSVSESPGKTVTISCTGSGGNIVDNFVQWHQQRPGSAPRTVIYEDDQRPSGVPDRFSASVDSSSNSGTLSISGLKTEDEADYYCQSYDGANRWVFGGGTKLTVL", "notes": "Fully human, phage display derived; human IgG1 Alya constant (239iCys, S442C, EU); unconjugated"}, "B2": {"name": "C0120906 human Alya IgG1 (antibody, V domains shown)", "VH": "EVQLVQSGPEVKKPGASVKISCKASGYKLNDPGVHGVSWVRQAPGQGLEWMGWISTLNGDTRYAQKFQGRVTMATDSSTSTIYMDLRSLKSDDTALYYCARDDYTAIFDFWGRGTLVTVSS", "VL": "QSVLTQPPSVSVAPGQTASITCGGSNIGSQSVHWYQQKPGQAPVLVVYDDSDRPSGIPERFSGSKSGNTASLILSRVEAGDEADYYCQVWDSSTDHHVFGTGTKVTVL", "notes": "as for B1"}, "B3": {"name": "C0120903 human Alya IgG1 (antibody, V domains shown)", "VH": "EVQLVQSGAEVKKPGSSMKVSCKASGGTFNSYTINWVRQAPGQGLEWVGGFIPIFGTADYAQKFHGRVAITADESMSTAYMELSSLRSEDTAVYYCARAPLGSEPFDYWGQGTMVTVSS", "VL": "SYVLTQPPSVSVAPGQTARITCGGNNIGSKSVHWYQQKPGQAPVLVVYDDSDRPSGIPERFSGSNSGNTATLTISRVEAGDEADYYCQVWDSSSDHLVFGGGTKLTVL", "notes": "as for B1"}, "B4": {"name": "C0120914 human Alya IgG1 (antibody, V domains shown)", "VH": "QVQLQESGPGLVKPSETLSLTCTVSGGSVSSGRYDWSWIRQPPGKGLEWIGHIYYTGITDYNPSLRSRVTISADKPKNQFSLKLNSVTAADTAVYYCARGPFFDPWGQGTMVTVSS", "VL": "QSVLTQPPSVSVAPGQTASLTCGANNIGSKSVQWYQQKPGQAPVLVVYDGSDRPSGIPDRFSGSSSENTATLTISRVEAGDEADYYCQLWDSVTDRPVFGGGTKVTVL", "notes": "as for B1"}, "B5": {"name": "C0120917 human Alya IgG1 (antibody, V domains shown)", "VH": "not shown", "VL": "NFMLTQPHSVSESPGKTVTISCTASGDTLDNKYVNWYQVRPGSAPATLIFHYEERDSGVPDRFSGSFDASSNSASLTISGLQTADEADYFCQSYDSKRDNLVVFGGGTKVTVL", "notes": "as for B1"}, "B6": {"name": "C0120918 human Alya IgG1 (antibody, V domains shown)", "VH": "not shown", "VL": "SYELTQPPSVSVSPGQTARITCSGDALPKQYAYWYQQKPGQAPVLVIYKDSERPSGIPERFSGSSSGTTVTLTISGVQAEDEADYYCQSADSSGTWVFGGGTKVTVL", "notes": "as for B1"}}, "data": [{"target": "T1, mouse SEMA4A expressed on expi293 cells (UniProt ID Q62178) (mouse, UniProt Q62178 33-760)", "T1 construct": "Transient transfection in expi293 cells", "T1 sequence": "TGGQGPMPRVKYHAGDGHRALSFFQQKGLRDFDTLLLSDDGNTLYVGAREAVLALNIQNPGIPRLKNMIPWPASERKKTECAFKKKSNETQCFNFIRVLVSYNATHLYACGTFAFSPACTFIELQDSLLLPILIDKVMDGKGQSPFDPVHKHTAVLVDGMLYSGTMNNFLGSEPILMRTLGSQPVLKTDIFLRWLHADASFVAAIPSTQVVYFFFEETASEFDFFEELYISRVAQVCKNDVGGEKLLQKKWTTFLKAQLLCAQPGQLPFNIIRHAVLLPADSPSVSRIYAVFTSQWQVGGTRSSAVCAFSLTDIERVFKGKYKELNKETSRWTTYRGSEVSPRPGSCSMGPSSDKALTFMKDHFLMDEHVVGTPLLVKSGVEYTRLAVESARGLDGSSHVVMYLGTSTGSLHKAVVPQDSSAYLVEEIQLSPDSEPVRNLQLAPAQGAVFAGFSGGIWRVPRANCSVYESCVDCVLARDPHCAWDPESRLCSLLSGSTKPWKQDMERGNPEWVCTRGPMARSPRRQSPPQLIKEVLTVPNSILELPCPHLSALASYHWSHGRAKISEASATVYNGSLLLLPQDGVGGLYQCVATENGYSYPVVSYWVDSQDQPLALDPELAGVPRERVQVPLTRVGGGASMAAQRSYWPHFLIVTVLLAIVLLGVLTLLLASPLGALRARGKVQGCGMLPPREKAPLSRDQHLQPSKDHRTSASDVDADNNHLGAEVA", "assay": "Mirrorball direct binding, dilution series on expi293 cells transiently transfected with mouse SEMA4A, anti-human Alexa Fluor 647", "text": "Hits from the primary screening were re-formatted into the human Alya IgG1 vector and re-expressed and purified as described in section 4.1. In addition, a single clone was identified that contained an Asparagine deamidation motif (Asn Gly) within its VHCDR2. This potential sequence liability was de-risked by synthesising de novo two clonal variant VH genes (Asn Ala and Gln Gly) and cloning these sequences into the human Alya IgG1 expression vector. To determine the specificity profile of each purified human Alya IgG1, a dilution series was tested for binding to human SEMA4A, mouse SEMA4A, cyno SEMA4A, human SEMA4B and mock transfected cells (transient transfections set up in expi 293 cells.) The five assays employed methods described in section 2.3, using the appropriate cells and substituting the un-purified scFv periplasmic preparation with the recombinant human Alya IgG1 dilution series. Data was analysed as Count x median mean intensity (x FLU).", "values": [{"binder": "B1", "binding result": "binds"}, {"binder": "B2", "binding result": "binds"}, {"binder": "B3", "binding result": "binds"}, {"binder": "B4", "binding result": "binds"}, {"binder": "B5", "binding result": "binds"}, {"binder": "B6", "binding result": "binds"}]}]}
